From patent US9566335

Legend:
[1] = target: biotinylated peptide X-…(biotin), X = V; assay: phage ELISA, biotinylated peptide on neutravidin
[2] = target: biotinylated peptide X-…(biotin), X = D; assay: phage ELISA, biotinylated peptide on neutravidin
[3] = target: biotinylated peptide X-…(biotin), X = K; assay: phage ELISA, biotinylated peptide on neutravidin
[4] = target: biotinylated peptide X-…(biotin), X = S; assay: phage ELISA, biotinylated peptide on neutravidin
[5] = target: biotinylated peptide X-…(biotin), X = H; assay: phage ELISA, biotinylated peptide on neutravidin
[6] = target: biotinylated peptide X-…(biotin), X = M; assay: phage ELISA, biotinylated peptide on neutravidin
[7] = target: biotinylated peptide X-…(biotin), X = C; assay: phage ELISA, biotinylated peptide on neutravidin
[8] = target: biotinylated peptide X-…(biotin), X = P; assay: phage ELISA, biotinylated peptide on neutravidin
[9] = target: biotinylated peptide X-…(biotin), X = A; assay: phage ELISA, biotinylated peptide on neutravidin
[10] = target: biotinylated peptide X-…(biotin), X = N; assay: phage ELISA, biotinylated peptide on neutravidin
[11] = target: biotinylated peptide X-…(biotin), X = E; assay: phage ELISA, biotinylated peptide on neutravidin
[12] = target: biotinylated peptide X-…(biotin), X = R; assay: phage ELISA, biotinylated peptide on neutravidin
[13] = target: biotinylated peptide X-…(biotin), X = G; assay: phage ELISA, biotinylated peptide on neutravidin
[14] = target: biotinylated peptide X-…(biotin), X = I; assay: phage ELISA, biotinylated peptide on neutravidin
[15] = target: biotinylated peptide X-…(biotin), X = T; assay: phage ELISA, biotinylated peptide on neutravidin
[16] = target: biotinylated peptide X-…(biotin), X = Q; assay: phage ELISA, biotinylated peptide on neutravidin
[17] = target: biotinylated peptide X-…(biotin), X = V; assay: phage ELISA, biotinylated peptide on neutravidin; phage 10×
[18] = target: biotinylated peptide X-…(biotin), X = D; assay: as above
[19] = target: biotinylated peptide X-…(biotin), X = K; assay: as above
[20] = target: biotinylated peptide X-…(biotin), X = S; assay: as above
[21] = target: biotinylated peptide X-…(biotin), X = H; assay: as above
[22] = target: biotinylated peptide X-…(biotin), X = M; assay: as above
[23] = target: biotinylated peptide X-…(biotin), X = C; assay: as above
[24] = target: biotinylated peptide X-…(biotin), X = P; assay: as above
[25] = target: biotinylated peptide X-…(biotin), X = A; assay: as above
[26] = target: biotinylated peptide X-…(biotin), X = N; assay: as above
[27] = target: biotinylated peptide X-…(biotin), X = E; assay: as above
[28] = target: biotinylated peptide X-…(biotin), X = R; assay: as above
[29] = target: biotinylated peptide X-…(biotin), X = G; assay: as above
[30] = target: biotinylated peptide X-…(biotin), X = I; assay: as above
[31] = target: biotinylated peptide X-…(biotin), X = T; assay: as above
[32] = target: biotinylated peptide X-…(biotin), X = Q; assay: as above

B1: Phage displayed wild-type E. coli ClpS (truncated wildtype ClpS polypeptide, FLAG-tagged, fused to phage coat protein p3) (protein)
chain: KPPSMYKVILVNDDYTPMEFVIDVLQKFFSYDVERATQLMLAVHYQGKAICGVFTAEVAETKVAMVNKYARENEHPLLCTLEKA
- phage ELISA signal (A450) [1]: -0.09
- phage ELISA signal (A450) [2]: -0.29
- phage ELISA signal (A450) [3]: 0.05
- phage ELISA signal (A450) [4]: -0.01
- phage ELISA signal (A450) [5]: -0.03
- phage ELISA signal (A450) [6]: -0.11
- phage ELISA signal (A450) [7]: -0.23
- phage ELISA signal (A450) [8]: -0.07
- phage ELISA signal (A450) [9]: -0.29
- phage ELISA signal (A450) [10]: -0.05
- phage ELISA signal (A450) [11]: -0.26
- phage ELISA signal (A450) [12]: 0.13
- phage ELISA signal (A450) [13]: -0.04
- phage ELISA signal (A450) [14]: -0.016
- phage ELISA signal (A450) [15]: 0.01
- phage ELISA signal (A450) [16]: -0.18
- phage ELISA signal (A450) [17]: -0.09
- phage ELISA signal (A450) [18]: -0.29
- phage ELISA signal (A450) [19]: 0.05
- phage ELISA signal (A450) [20]: -0.01
- phage ELISA signal (A450) [21]: -0.03
- phage ELISA signal (A450) [22]: -0.11
- phage ELISA signal (A450) [23]: -0.23
- phage ELISA signal (A450) [24]: -0.07
- phage ELISA signal (A450) [25]: -0.29
- phage ELISA signal (A450) [26]: -0.05
- phage ELISA signal (A450) [27]: -0.26
- phage ELISA signal (A450) [28]: 0.13
- phage ELISA signal (A450) [29]: -0.04
- phage ELISA signal (A450) [30]: -0.16
- phage ELISA signal (A450) [31]: 0.01
- phage ELISA signal (A450) [32]: -0.18
